Source: PMC5797146
Values joined by “and” are separate entries in the source; they are usually repeats but may differ in a detail not shown here. Equal values may be shown once.

How the values were obtained:
[1] = molecular target: Clostridium difficile toxin A (Clostridium difficile) (UniProt P16154)
[2] = molecular target: Clostridium difficile toxin A (Clostridium difficile) (UniProt P16154); test: SPR

B1: A26.8 VHH (parent) (VHH)
VHH: QVKLEESGGGLVQAGGSLRLSCAASERTFSRYPVAWFRQAPGAEREFVAVISSTGTSTYYADSVKGRFTISRDNAKVTVYLQMNNLKREDTAVYFCAVNSQRTRLQDPNEYDYWGQGTQVTVSS
other [1]: 70 nM and 60% | Kd [2]: 18.7 nM | koff [2]: 0.034 s⁻¹ | kon [2]: 1.8e+06 M⁻¹ s⁻¹
